Test results published in the supplement of paper PMC11246515.
± gives the standard deviation of the averaged measurements.

Experiment: total protein half-life in vivo (active degradation + dilution); higher = more stable protein
[1] = E. coli NCM3722 delta-clpP delta-lon delta-hslV, growth: N-lim chemostat, doubling time 6 h
[2] = E. coli NCM3722 delta-clpP, growth: N-lim chemostat, doubling time 6 h
[3] = E. coli NCM3722 delta-hslV, growth: N-lim chemostat, doubling time 6 h
[4] = E. coli NCM3722 delta-lon, growth: N-lim chemostat, doubling time 6 h
[5] = E. coli NCM3722 delta-smpB, growth: N-lim chemostat, doubling time 6 h
[6] = wild type E. coli NCM3722, growth: C-lim chemostat, doubling time 3 h
[7] = wild type E. coli NCM3722, growth: C-lim chemostat, doubling time 6 h
[8] = wild type E. coli NCM3722, growth: C-lim chemostat, doubling time 12 h
[9] = wild type E. coli NCM3722, growth: N-lim chemostat, doubling time 6 h
[10] = wild type E. coli NCM3722, growth: N-lim chemostat, doubling time 12 h
[11] = wild type E. coli NCM3722, growth: P-lim chemostat, doubling time 6 h
[12] = wild type E. coli NCM3722, growth: P-lim chemostat, doubling time 12 h

Row | Sequence | total protein half-life in vivo [1] [h] | total protein half-life in vivo [2] [h] | total protein half-life in vivo [3] [h] | total protein half-life in vivo [4] [h] | total protein half-life in vivo [5] [h] | total protein half-life in vivo [6] [h] | total protein half-life in vivo [7] [h] | total protein half-life in vivo [8] [h] | total protein half-life in vivo [9] [h] | total protein half-life in vivo [10] [h] | total protein half-life in vivo [11] [h] | total protein half-life in vivo [12] [h]
1 | MTMFQYYKRSRHFVFSAFIAFVFVLLCQNTAFARASSNGDLPTKADLQAQLDSLNKQKDLSAQDKLVQQDLTDTLATLDKIDRIKEETVQLRQKVAEAPEKMRQATAALTALSDVDNDEETRKILSTLSLRQLETRVAQALDDLQNAQNDLASYNSQLVSLQTQPERVQNAMYNASQQLQQIRSRLDGTDVGETALRPSQKVLMQAQQALLNAEIDQQRKSLEGNTVLQDTLQKQRDYVTANSARLEHQLQLLQEAVNSKRLTLTEKTAQEAVSPDEAARIQANPLVKQELEINQQLSQRLITATENGNQLMQQNIKVKNWLERALQSERNIKEQIAVLKGSLLLSRILYQQQQTLPSADELENMTNRIADLRLEQFEVNQQRDALFQSDAFVNKLEEGHTNEVNSEVHDALLQVVDMRRELLDQLNKQLGNQLMMAINLQINQQQLMSVSKNLKSILTQQIFWVNSNRPMDWDWIKAFPQSLKDEFKSMKITVNWQKAWPAVFIAFLAGLPLLLIAGLIHWRLGWLKAYQQKLASAVGSLRNDSQLNTPKAILIDLIRALPVCLIILAVGLILLTMQLNISELLWSFSKKLAIFWLVFGLCWKVLEKNGVAVRHFGMPEQQTSHWRRQIVRISLALLPIHFWSVVAELSPLHLMDDVLGQAMIFFNLLLIAFLVWPMCRESWRDKESHTMRLVTITVLSIIPIALMVLTATGYFYTTLRLAGRWIETVYLVIIWNLLYQTVLRGLSVAARRIAWRRALARRQNLVKEGAEGAEPPEEPTIALEQVNQQTLRITMLLMFALFGVMFWAIWSDLITVFSYLDSITLWHYNGTEAGAAVVKNVTMGSLLFAIIASMVAWALIRNLPGLLEVLVLSRLNMRQGASYAITTILNYIIIAVGAMTVFGSLGVSWDKLQWLAAALSVGLGFGLQEIFGNFVSGLIILFERPVRIGDTVTIGSFSGTVSKIRIRATTITDFDRKEVIIPNKAFVTERLINWSLTDTTTRLVIRLGVAYGSDLEKVRKVLLKAATEHPRVMHEPMPEVFFTAFGASTLDHELRLYVRELRDRSRTVDELNRTIDQLCRENDINIAFNQLEVHLHNEKGDEVTEVKRDYKGDDPTPAVG | 5.8 ± 0.075 | 6.4 ± 0.7 | 5.72 ± 0.36 | 6.99 ± 1.1 | 5.79 ± 0.11 | 3.06 ± 0.094 | 5.56 ± 0.15 | 11.1 ± 2.1 | 6.73 ± 0.33 | 13.1 ± 1.6 | 5.94 ± 0.43 | 11.4 ± 0.85
2 | MTMPTNQCPWRMQVHHITQETPDVWTISLICHDYYPYRAGQYALVSVRNSAETLRAYTISSTPGVSEYITLTVRRIDDGVGSQWLTRDVKRGDYLWLSDAMGEFTCDDKAEDKFLLLAAGCGVTPIMSMRRWLAKNRPQADVRVIYNVRTPQDVIFADEWRNYPVTLVAENNVTEGFIAGRLTRELLAGVPDLASRTVMTCGPAPYMDWVEQEVKALGVTRFFKEKFFTPVAEAATSGLKFTKLQPAREFYAPVGTTLLEALESNNVPVVAACRAGVCGCCKTKVVSGEYTVSSTMTLTDAEIAEGYVLACSCHPQGDLVLA | 3.27 ± 0.63 |  |  |  |  |  |  |  |  |  |  | 
3 | MTNITKRSLVAAGVLAALMAGNVALAADVPAGVTLAEKQTLVRNNGSEVQSLDPHKIEGVPESNISRDLFEGLLVSDLDGHPAPGVAESWDNKDAKVWTFHLRKDAKWSDGTPVTAQDFVYSWQRSVDPNTASPYASYLQYGHIAGIDEILEGKKPITDLGVKAIDDHTLEVTLSEPVPYFYKLLVHPSTSPVPKAAIEKFGEKWTQPGNIVTNGAYTLKDWVVNERIVLERSPTYWNNAKTVINQVTYLPIASEVTDVNRYRSGEIDMTNNSMPIELFQKLKKEIPDEVHVDPYLCTYYYEINNQKPPFNDVRVRTALKLGMDRDIIVNKVKAQGNMPAYGYTPPYTDGAKLTQPEWFGWSQEKRNEEAKKLLAEAGYTADKPLTINLLYNTSDLHKKLAIAASSLWKKNIGVNVKLVNQEWKTFLDTRHQGTFDVARAGWCADYNEPTSFLNTMLSNSSMNTAHYKSPAFDSIMAETLKVTDEAQRTALYTKAEQQLDKDSAIVPVYYYVNARLVKPWVGGYTGKDPLDNTYTRNMYIVKH | 5.05 ± 0.41 | 5.96 ± 0.98 | 6.62 ± 0.85 | 6.25 ± 0.66 | 6.01 ± 0.075 | 3.13 ± 0.1 | 6.215 ± 0.047 | 12.7 ± 1.9 | 6.22 ± 0.13 | 12 ± 0.33 | 6.03 ± 0.071 | 12.3 ± 0.35
4 | MTNNDTTLQLSSVLNRECTRSRVHCQSKKRALEIISELAAKQLSLPPQVVFEAILTREKMGSTGIGNGIAIPHGKLEEDTLRAVGVFVQLETPIAFDAIDNQPVDLLFALLVPADQTKTHLHTLSLVAKRLADKTICRRLRAAQSDEELYQIITDTEGTPDEA | 4.58 ± 0.29 | 3.48 ± 2.9 | 5.17 ± 0.097 | 5.82 | 3.01 ± 0.57 | 2.46 ± 0.65 | 5.18 ± 1.6 | 9.11 ± 5.2 | 3.79 | 5.69 ± 0.31 | 3.46 ± 1.9 | 8.38 ± 1.6
5 | MTNPLLTPFELPPFSKILPEHVVPAVTKALNDCRENVERVVAQGAPYTWENLCQPLAEVDDVLGRIFSPVSHLNSVKNSPELREAYEQTLPLLSEYSTWVGQHEGLYKAYRDLRDGDHYATLNTAQKKAVDNALRDFELSGIGLPKEKQQRYGEIATRLSELGNQYSNNVLDATMGWTKLVTDEAELAGMPESALAAAKAQAEAKELEGYLLTLDIPSYLPVMTYCDNQALREEMYRAYSTRASDQGPNAGKWDNSKVMEEILALRHELAQLLGFENYAFKSLATKMAENPQQVLDFLTDLAKRARPQGEKELAQLRAFAKAEFGVDELQPWDIAYYSEKQKQHLYSISDEQLRPYFPENKAVNGLFEVVKRIYGITAKERKDVDVWHPDVRFFELYDENNELRGSFYLDLYARENKRGGAWMDDCVGQMRKADGSLQKPVAYLTCNFNRPVNGKPALFTHDEVITLFHEFGHGLHHMLTRIETAGVSGISGVPWDAVELPSQFMENWCWEPEALAFISGHYETGEPLPKELLDKMLAAKNYQAALFILRQLEFGLFDFRLHAEFRPDQGAKILETLAEIKKLVAVVPSPSWGRFPHAFSHIFAGGYAAGYYSYLWADVLAADAFSRFEEEGIFNRETGQSFLDNILSRGGSEEPMDLFKRFRGREPQLDAMLEHYGIKG | 4.42 ± 0.21 | 4.18 ± 0.052 | 4.03 ± 0.15 | 3.74 ± 0.18 | 3.55 ± 0.062 | 2.795 ± 0.023 | 5.17 ± 0.21 | 8.7 ± 0.94 | 3.68 ± 0.23 | 5.67 ± 0.55 | 5.1797 ± 0.00065 | 9.96 ± 1.1
